# Positions count from the first letter of the chain named. “Also recorded” adds a separate entry of the source.
# T1: CD97 (ADGRE5) isoform 1 ectodomain, purified and biotinylated (human, UniProt P48960 21-552, limits assumed, biotinylated in vitro using the BirA enzyme)
# T1 construct: the whole entry for isoform 1 is named here; also called CD97 isoform 1; Biotinylated CD97 isoform 1
# T1 sequence: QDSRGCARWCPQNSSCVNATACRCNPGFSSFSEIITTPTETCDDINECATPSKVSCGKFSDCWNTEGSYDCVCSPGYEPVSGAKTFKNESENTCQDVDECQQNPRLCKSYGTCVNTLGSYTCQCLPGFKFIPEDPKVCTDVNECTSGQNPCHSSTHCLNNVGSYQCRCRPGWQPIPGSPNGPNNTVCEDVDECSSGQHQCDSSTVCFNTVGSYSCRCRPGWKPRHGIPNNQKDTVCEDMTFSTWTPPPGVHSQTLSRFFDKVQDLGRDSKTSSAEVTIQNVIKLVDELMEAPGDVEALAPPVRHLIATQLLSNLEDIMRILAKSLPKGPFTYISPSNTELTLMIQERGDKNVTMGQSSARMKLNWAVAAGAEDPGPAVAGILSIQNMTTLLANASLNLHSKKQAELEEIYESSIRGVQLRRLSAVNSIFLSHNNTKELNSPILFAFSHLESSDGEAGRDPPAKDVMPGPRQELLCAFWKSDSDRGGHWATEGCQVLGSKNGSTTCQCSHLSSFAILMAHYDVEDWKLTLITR
# T2: CD97 (ADGRE5) isoform 2 ectodomain, purified and biotinylated (human, UniProt P48960 21-552, biotinylated in vitro using the BirA enzyme)
# T2 construct: the whole entry for isoform 2 is named here; also called CD97 isoform 2
# T2 sequence: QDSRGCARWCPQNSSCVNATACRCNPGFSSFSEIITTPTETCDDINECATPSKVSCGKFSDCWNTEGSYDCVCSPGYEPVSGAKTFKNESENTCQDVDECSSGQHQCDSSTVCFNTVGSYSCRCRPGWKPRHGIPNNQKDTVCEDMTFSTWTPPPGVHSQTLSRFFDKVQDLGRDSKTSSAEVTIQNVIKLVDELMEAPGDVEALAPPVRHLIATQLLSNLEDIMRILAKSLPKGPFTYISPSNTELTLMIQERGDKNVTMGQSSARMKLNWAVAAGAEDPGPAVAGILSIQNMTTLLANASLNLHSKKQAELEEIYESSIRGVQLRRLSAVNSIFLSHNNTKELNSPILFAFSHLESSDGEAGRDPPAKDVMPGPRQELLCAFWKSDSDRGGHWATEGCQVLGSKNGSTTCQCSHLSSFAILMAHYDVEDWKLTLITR
# T3: EMR2 (EGF-like module-containing mucin-like hormone receptor-like 2) isoform 4 ectodomain, purified and … (UniProt Q9UHX3-4 24-447, limits assumed, biotinylated in vitro using the BirA enzyme)
# T3 construct: extracellular domain; Close homolog of CD97 used as specificity control
# T3 sequence (looked up): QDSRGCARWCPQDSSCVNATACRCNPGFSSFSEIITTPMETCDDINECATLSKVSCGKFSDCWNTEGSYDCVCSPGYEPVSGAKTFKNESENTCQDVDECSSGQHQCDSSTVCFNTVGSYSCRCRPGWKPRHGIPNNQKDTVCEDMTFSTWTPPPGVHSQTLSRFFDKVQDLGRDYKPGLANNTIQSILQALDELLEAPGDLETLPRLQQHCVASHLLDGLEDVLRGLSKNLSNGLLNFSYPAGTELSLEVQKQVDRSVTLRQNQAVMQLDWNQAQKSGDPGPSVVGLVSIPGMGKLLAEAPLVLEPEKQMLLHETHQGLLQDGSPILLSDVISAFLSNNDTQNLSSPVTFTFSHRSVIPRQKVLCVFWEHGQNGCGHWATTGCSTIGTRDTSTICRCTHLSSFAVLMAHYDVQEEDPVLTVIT
# B1: Fab 2V10 (Fab, V domains shown)
# VH: EVQLVESGGGLVQPGGSLRLSCAASGFTISSSSIHWVRQAPGKGLEWVAYIYPSSGSTSYADSVKGRFTISADTSKNTAYLQMNSLRAEDTAVYYCARPWYYSTFNKKWWDYQGLDYWGQGTLVTVSS
# VL: DIQMTQSPSSLSASVGDRVTITCRASQSVSSAVAWYQQKPGKAPKLLIYSASSLYSGVPSRFSGSRSGTDFTLTISSLQPEDFATYYCQQSWWDPITFGQGTKVEIKR
# notes: second discovery campaign; biotinylated Fab in the bead assay; same clone as m10 in Fab format; also called Antibody Clone 2V10
# B2: Fab 2W1 (Fab, V domains shown)
# VH: EVQLVESGGGLVQPGGSLRLSCAASGFTVSSSSIHWVRQAPGKGLEWVAYISSSSGSTYYADSVKGRFTISADTSKNTAYLQMNSLRAEDTAVYYCARDFYFGSYYSFGWGLDYWGQGTLVTVSS
# VL: B1 VL with S91D, W92S, W93S, D94Y
# notes: second discovery campaign; biotinylated Fab in the bead assay; also called Antibody Clone 2W1
# B3: Antibody clone C27, Fab format (Fab, V domains shown)
# VH: EVQLVESGGGLVQPGGSLRLSCAASGFTLSSSSIHWVRQAPGKGLEWVASIYSYYGSTYYADSVKGRFTISADTSKNTAYLQMNSLRAEDTAVYYCARYRGNMYYWESWYGSYWALDYWGQGTLVTVSS
# VL: B1 VL with W92S, W93S, D94S, P95L
# B4: Fab D25 (Fab, V domains shown)
# VH: EVQLVESGGGLVQPGGSLRLSCAASGFTFSSSSIHWVRQAPGKGLEWVASISPYYGSTSYADSVKGRFTISADTSKNTAYLQMNSLRAEDTAVYYCARKLEWGMFFWSPYFRALDYWGQGTLVTVSS
# VL: B1 VL with W92S, W93S, D94S, P95L
# notes: first discovery campaign; also called Antibody Clone D25
# B5: N100bHE (Fab, V domains shown)
# VH: EVQLVESGGGLVQPGGSLRLSCAASGFTISSYSIHWVRQAPGKGLEWVASISPYYGSTSYADSVKGRFTISADTSKNTAYLQMNSLRAEDTAVYYCARSWYYYEQEPYWYQKEEQALDYWGQGTLVTVSS
# VL: DIQMTQSPSSLSASVGDRVTITCRASQSVSSAVAWYQQKPGKAPKLLIYSASSLYSGVPSRFSGSRSGTDFTLTISSLQPEDFATYYCQQSVYSPVTFGQGTKVEIK
# notes: also called A8 N100bHE; Antibody Clone A8 N100bHE; copies: 1 + 1
# B6: W100eHA (Fab, V domains shown)
# VH: B5 VH with E106N, W109A
# VL: B5 VL
# notes: also called A8 W100eHA; Antibody Clone A8 W100eHA; copies: 1 + 1
# B7: A8-MMAF (conjugate)
# VH: B5 VH with E106N
# VL: DIQMTQSPSSLSASVGDRVTITCRASQSVSSAVAWYQQKPGKAPKLLIYSASSLYSGVPSRFSGSRSGTDFTLTISSLQPEDFATYYCQQSVYSPVTFGQGTKVEIKRTV
# modifications: non-natural residues
# B8: A8S293C-PBD (conjugate)
# VH: B5 VH with E106N
# VL: B7 VL
# Legend:
# [1] = target: EMR2 (EGF-like module-containing mucin-like hormone receptor-like 2) isoform 1 ectodomain, purified and biotinylated (UniProt Q9UHX3); experiment: bead-based binding titration (biotinylated antigen on streptavidin beads, flow cytometry), 1:1 fit
# [2] = target: T1, CD97 (ADGRE5) isoform 1 ectodomain, …; experiment: as above
# [3] = target: T2, CD97 (ADGRE5) isoform 2 ectodomain, …; experiment: as above
# [4] = target: T3, EMR2 (EGF-like module-containing …); experiment: as above
# [5] = target: T2, CD97 (ADGRE5) isoform 2 ectodomain, …; experiment: bead-based binding titration (biotinylated antigen on streptavidin beads, flow cytometry) [Continued]
# [6] = target: T3, EMR2 (EGF-like module-containing …); experiment: as above
# [7] = target: T1, CD97 (ADGRE5) isoform 1 ectodomain, …; experiment: bead-based binding titration (biotinylated antigen on streptavidin beads, flow cytometry), 1:1 fit [Continued]
# [8] = target: T2, CD97 (ADGRE5) isoform 2 ectodomain, …; experiment: as above
# [9] = target: T1, CD97 (ADGRE5) isoform 1 ectodomain, …; experiment: bead-based binding assay: biotinylated CD97 isoform 1 on streptavidin beads, Fab titrated, flow cytometry MFI, 1:1 fit; EXPERIMENT 1
# Method: (§2) KD values were determined from the curve fitting of a 1:1 binding model.
# [10] = target: T1, CD97 (ADGRE5) isoform 1 ectodomain, …; experiment: bead-based binding assay: biotinylated CD97 isoform 1 on streptavidin beads, Fab titrated, flow cytometry MFI, 1:1 fit; EXPERIMENT 2
# Method: as §2
# [11] = target: T1, CD97 (ADGRE5) isoform 1 ectodomain, …; experiment: bead-based binding assay: biotinylated CD97 isoform 1 on streptavidin beads, Fab titrated, flow cytometry MFI; EXPERIMENT 1 and EXPERIMENT 2
# Method: as §2
# [12] = tested on: OCI-AML3 cells; experiment: Cell viability assay (PrestoBlue) of ADC; type: cell-based, human; conditions: 3 days incubation
# Method: (§1) For the cell viability assay, the cells were mixed with ADC (20,000 cells/well), and incubated at 37° C. with 5% CO2 for 3 days. After incubation, cell viability was assessed by PrestoBlue assay (Thermo Fisher), following the manufacturer's protocol. The fluorescence was measured using a FlexStation 3 multi-mode microplate reader (Molecular Devices). Dose-response curves and respective ECso were generated using Prism software (GraphPad). For the cell-killing assay, a 96-well plate was coated with 0.1% poly-D-lysine. The cells were mixed with a diluted Incucyte® Annexin V Green Dye (Sartorius) and ADC (13,500 cells/well), and incubated in an Incucyte live-cell analysis system (Sartorius) at 37° C. with 5% CO2 for 4 days. The percentage of dead cells was analyzed using Incucyte Software (Sartorious).
# [13] = tested on: AML cells; experiment: Cell viability assay (PrestoBlue), cell killing specificity; type: cell-based, human; conditions: cells with different CD97 levels
# Method: as §1
# [14] = tested on: OCI-AML3 cells; experiment: Cell-killing assay (Annexin V staining, Incucyte); type: cell-based, human
# Method: as §1
# [15] = tested on: human peripheral blood mononuclear cells (PBMCs); experiment: Cell-killing assay (Annexin V staining, Incucyte); type: cell-based; conditions: 4 days incubation
# Method: as §1
molecule,measurement,setting,value
B1,Kd,[1],1.6 nM
same,Kd,[2],2.7 nM
same,Kd,[3],3 nM
same,Kd,[4],1.5 nM
B2,Kd,[1],47 nM
same,Kd,[2],18 nM
same,Kd,[3],18 nM
same,Kd,[4],52 nM
B3,binding result,[5],no binding (tested: 50 nM)
same,binding result,[6],no binding (tested: 50 nM)
same,Kd,[7],16 nM
B4,Kd,[7],14 nM
same,Kd,[8],14 nM
B5,Kd,[9],160 nM
same,Kd,[10],150 nM
B6,binding result,[11],no binding
B7,cell killing (cell viability),[12],potently killed OCI-AML3 cells in a dose-dependent manner; also recorded: potent cell-killing effect on OCI-AML3 cells
same,cell killing specificity versus cell-surface CD97 level,[13],correlated with the cell-surface CD97 level; also recorded: inhibited cell growth only for the cells expressing a high level of CD97
B8,"cell-killing effect (cell death, Annexin V)",[14]; 4 days incubation,potent cell-killing effect
same,specificity of cell killing,"[14]; OCI-AML3 (hCD97 high) versus ExpiCHO (hCD97-null), 4 days",specifically killed cells expressing high levels of CD97
same,killing of PBMC cells,[15],did not kill PBMC cells

# Reference: patent US20250051474A1, “ANTI-CD97 ANTIBODIES AND ANTIBODY-DRUG CONJUGATES” (New York University, priority 2023, published 2025)
